Reference: the Immune Epitope Database (IEDB)

How the values were obtained:
[1] = biological target: HLA-A*02:01; test: IEDB peptide-MHC binding, purified MHC/direct/fluorescence; filed as Kd, often an IC50 or EC50 that approximates it; ≥ and ≤ were set here for values at or beyond the usual limits of such assays
[2] = biological target: HLA-A*02:03; test: as above
[3] = biological target: HLA-A*02:11; test: as above
[4] = biological target: HLA-A*02:12; test: as above
[5] = biological target: HLA-A*02:16; test: as above
[6] = biological target: HLA-A*02:19; test: as above
[7] = biological target: HLA-A*03:01; test: as above
[8] = biological target: HLA-A*26:01; test: as above
[9] = biological target: HLA-A*68:02; test: as above
[10] = biological target: HLA-B*15:01; test: as above
[11] = biological target: HLA-B*18:01; test: as above
[12] = biological target: HLA-B*27:03; test: as above
[13] = biological target: HLA-B*39:01; test: as above
[14] = biological target: HLA-B*46:01; test: as above
[15] = biological target: HLA-B*51:01; test: as above
[16] = biological target: HLA-B*57:01; test: as above
[17] = biological target: HLA-A*24:03; test: as above
[18] = biological target: HLA-A*29:02; test: as above
[19] = biological target: HLA-A*23:01; test: as above
[20] = biological target: HLA-A*02:01; test: IEDB peptide-MHC binding, purified MHC/competitive/fluorescence; filed as Kd, often an IC50 or EC50 that approximates it; ≥ and ≤ were set here for values at or beyond the usual limits of such assays
[21] = biological target: HLA-A*26:01; test: as above
[22] = biological target: HLA-A*69:01; test: as above
[23] = biological target: HLA-B*15:01; test: as above
[24] = biological target: HLA-B*18:01; test: as above
[25] = biological target: HLA-B*27:05; test: as above
[26] = biological target: HLA-B*39:01; test: as above
[27] = biological target: HLA-B*46:01; test: as above
[28] = biological target: HLA-B*51:01; test: as above
[29] = biological target: HLA-B*57:01; test: as above
[30] = biological target: HLA-B*15:17; test: as above
[31] = biological target: HLA-A*69:01; test: IEDB peptide-MHC binding, purified MHC/direct/fluorescence; filed as Kd, often an IC50 or EC50 that approximates it; ≥ and ≤ were set here for values at or beyond the usual limits of such assays; settings: source organism: Bacillus cereus G9842
[32] = biological target: HLA-C*03:03; test: as above
[33] = biological target: HLA-C*05:01; test: as above; settings: source organism: Mycobacterium tuberculosis str. Haarlem
[34] = biological target: HLA-B*15:42; test: IEDB peptide-MHC binding, purified MHC/competitive/fluorescence; filed as Kd, often an IC50 or EC50 that approximates it; ≥ and ≤ were set here for values at or beyond the usual limits of such assays; settings: source organism: Mycobacterium tuberculosis str. Haarlem
[35] = biological target: HLA-B*45:06; test: as above; settings: source organism: Mycobacterium tuberculosis str. Haarlem
[36] = biological target: HLA-B*83:01; test: as above; settings: source organism: Mycobacterium tuberculosis str. Haarlem
[37] = biological target: HLA-B*27:03; test: as above; settings: source organism: Orthohantavirus andesense
[38] = biological target: HLA-C*07:02; test: IEDB peptide-MHC binding, purified MHC/direct/fluorescence; filed as Kd, often an IC50 or EC50 that approximates it; ≥ and ≤ were set here for values at or beyond the usual limits of such assays; settings: source organism: Vaccinia virus
[39] = source organism: Mycobacterium tuberculosis str. Haarlem
[40] = source organism: Rickettsia bellii RML369-C
[41] = source organism: Orthohantavirus tulaense
[42] = source organism: Orthohantavirus negraense
[43] = source organism: Bacillus cereus G9842
[44] = source organism: Entamoeba histolytica HM-1:IMSS
[45] = source organism: Orthohantavirus andesense

Sequence: LPVEYLQVP
- Kd [1, 39]: ≥ 20 µM
- Kd [2, 39]: ≥ 20 µM
- Kd [3, 39]: ≥ 20 µM
- Kd [4, 39]: ≥ 20 µM
- Kd [5, 39]: ≥ 20 µM
- Kd [6, 39]: ≥ 20 µM
- Kd [7, 39]: ≥ 20 µM
- Kd [8, 39]: ≥ 20 µM
- Kd [9, 39]: ≥ 20 µM
- Kd [10, 39]: ≥ 20 µM
- Kd [11, 39]: ≥ 20 µM
- Kd [12, 39]: ≥ 20 µM
- Kd [13, 39]: ≥ 20 µM
- Kd [14, 39]: ≥ 20 µM
- Kd [15, 39]: ≥ 20 µM
- Kd [16, 39]: ≥ 20 µM

Sequence: NPLEIYQEI
- Kd [1, 40]: ≥ 20 µM
- Kd [2, 40]: ≥ 20 µM
- Kd [3, 40]: ≥ 20 µM
- Kd [4, 40]: ≥ 20 µM
- Kd [5, 40]: ≥ 20 µM
- Kd [6, 40]: ≥ 20 µM
- Kd [7, 40]: ≥ 20 µM
- Kd [17, 40]: ≥ 20 µM
- Kd [8, 40]: ≥ 20 µM
- Kd [18, 40]: ≥ 20 µM
- Kd [10, 40]: ≥ 20 µM
- Kd [11, 40]: ≥ 20 µM
- Kd [12, 40]: ≥ 20 µM
- Kd [13, 40]: ≥ 20 µM
- Kd [14, 40]: ≥ 20 µM
- Kd [15, 40]: 0.132 µM
- Kd [16, 40]: ≥ 20 µM

Sequence: RRAYSGKQY
- Kd [2, 41]: ≥ 20 µM
- Kd [3, 41]: ≥ 20 µM
- Kd [4, 41]: ≥ 20 µM
- Kd [5, 41]: ≥ 20 µM
- Kd [6, 41]: ≥ 20 µM
- Kd [7, 41]: ≥ 20 µM
- Kd [19, 41]: ≥ 20 µM
- Kd [17, 41]: ≥ 20 µM
- Kd [18, 41]: ≥ 20 µM
- Kd [9, 41]: ≥ 20 µM
- Kd ([20]; source organism: Kurkino virus): ≥ 20 µM
- Kd ([21]; source organism: Kurkino virus): ≥ 20 µM
- Kd ([22]; source organism: Kurkino virus): ≥ 20 µM
- Kd ([23]; source organism: Kurkino virus): ≥ 20 µM
- Kd ([24]; source organism: Kurkino virus): ≥ 20 µM
- Kd ([25]; source organism: Kurkino virus): 0.23 µM
- Kd ([26]; source organism: Kurkino virus): ≥ 20 µM
- Kd ([27]; source organism: Kurkino virus): ≥ 20 µM
- Kd ([28]; source organism: Kurkino virus): ≥ 20 µM
- Kd ([29]; source organism: Kurkino virus): ≥ 20 µM

Sequence: RRFTQAIYD
- Kd [2, 42]: ≥ 20 µM
- Kd [3, 42]: ≥ 20 µM
- Kd [4, 42]: ≥ 20 µM
- Kd [5, 42]: ≥ 20 µM
- Kd [6, 42]: ≥ 20 µM
- Kd [7, 42]: ≥ 20 µM
- Kd [19, 42]: ≥ 20 µM
- Kd [17, 42]: ≥ 20 µM
- Kd [18, 42]: ≥ 20 µM
- Kd [9, 42]: ≥ 20 µM
- Kd [20, 42]: ≥ 20 µM
- Kd [21, 42]: ≥ 20 µM
- Kd [22, 42]: ≥ 20 µM
- Kd [23, 42]: ≥ 20 µM
- Kd [30, 42]: ≥ 20 µM
- Kd [24, 42]: ≥ 20 µM
- Kd [25, 42]: 0.317 µM
- Kd [26, 42]: ≥ 20 µM
- Kd [27, 42]: ≥ 20 µM
- Kd [28, 42]: ≥ 20 µM
- Kd [29, 42]: ≥ 20 µM

Sequence: TQIPRQMVL
- Kd [1, 43]: ≥ 20 µM
- Kd [3, 43]: ≥ 20 µM
- Kd [4, 43]: ≥ 20 µM
- Kd [5, 43]: ≥ 20 µM
- Kd [6, 43]: ≥ 20 µM
- Kd [7, 43]: ≥ 20 µM
- Kd [17, 43]: ≥ 20 µM
- Kd [8, 43]: ≥ 20 µM
- Kd [18, 43]: ≥ 20 µM
- Kd [9, 43]: ≥ 20 µM
- Kd [31]: ≥ 20 µM
- Kd [11, 43]: ≥ 20 µM
- Kd [12, 43]: ≥ 20 µM
- Kd [14, 43]: ≥ 20 µM
- Kd [16, 43]: ≥ 20 µM

Sequence: VKINIFPLY
- Kd [1, 44]: ≥ 20 µM
- Kd [2, 44]: ≥ 20 µM
- Kd [4, 44]: ≥ 20 µM
- Kd [5, 44]: ≥ 20 µM
- Kd [6, 44]: ≥ 20 µM
- Kd [7, 44]: ≥ 20 µM
- Kd [8, 44]: ≥ 20 µM
- Kd [9, 44]: ≥ 20 µM
- Kd [12, 44]: ≥ 20 µM
- Kd [13, 44]: ≥ 20 µM
- Kd [14, 44]: ≥ 20 µM
- Kd [15, 44]: ≥ 20 µM
- Kd [16, 44]: ≥ 20 µM

Sequence: YAREAGIAM
- Kd [32, 39]: ≥ 20 µM
- Kd [33]: ≥ 20 µM
- Kd [34]: ≥ 5 µM
- Kd [35]: ≥ 5 µM
- Kd [27, 39]: ≥ 20 µM
- Kd [36]: ≥ 5 µM

Sequence: YLIPSVTSL
- Kd [1, 45]: 0.0018 µM
- Kd [4, 45]: ≥ 20 µM
- Kd [6, 45]: ≥ 20 µM
- Kd [7, 45]: ≥ 20 µM
- Kd [17, 45]: ≥ 20 µM
- Kd [18, 45]: ≥ 20 µM
- Kd [9, 45]: ≥ 20 µM
- Kd [32, 45]: ≤ 0.001 µM
- Kd [21, 45]: ≥ 20 µM
- Kd [22, 45]: ≥ 20 µM
- Kd [30, 45]: ≥ 20 µM
- Kd [24, 45]: ≥ 20 µM
- Kd [37]: ≥ 20 µM
- Kd [28, 45]: ≥ 20 µM
- Kd [29, 45]: ≥ 20 µM

Sequence: YRHKNYYAL
- Kd [38]: 0.057 µM
